# Results as given in US20080050396A1 (SURVAC, published 2008).
# Molecular target: HLA-A2 (human)
# Assay: assembly assay: peptide stabilisation of HLA-A2 from T2 lysate, W6/32 immunoprecipitation
row,Binder,C50
1,FTARGRFATV (The end of the range is worked out from the printed start and the peptide length) [bcl124],1 µM
2,YLNRHLHTWI (The end of the range is worked out from the printed start and the peptide length) [bcl180],15 µM
3,NIALWMTEYL (The end of the range is worked out from the printed start and the peptide length) [bcl172],2 µM
4,ALVGACITL (The end of the range is worked out from the printed start and the peptide length) [Bcl224],0.7 µM
5,ALSPVPPVV (The end of the range is worked out from the printed start and the peptide length) [Bcl85],1 µM
6,SLALVGACI (The end of the range is worked out from the printed start and the peptide length) [bcl222],1 µM
7,KTLLSLALV (The end of the range is worked out from the printed start and the peptide length) [bcl218],2 µM
8,LLSLALVGA (The end of the range is worked out from the printed start and the peptide length) [bcl220],1 µM
9,WLSLKTLLSL (The end of the range is worked out from the printed start and the peptide length) [bcl214],3 µM
10,AAAGPALSPV (The end of the range is worked out from the printed start and the peptide length) [bcl80],36 µM
11,PLFDFSWLSL (The end of the range is worked out from the printed start and the peptide length) [bcl208],7 µM
